The record followed here is PMC6451096, “Molecular basis for transfer RNA recognition by the double-stranded RNA-binding domain of human dihydrouridine synthase 2”.

Data set [1] has as its target T1, hDus2 full length (Homo sapiens, UniProt Q9NX74 1-493). The data set can be described thus: EMSA; same affinity as for full tRNA; value only in Fig S12e; EMSA: 50 mM Tris-HCl pH 8, 10% glycerol, 5 mM DTT, 150 mM ammonium acetate, 1 uM tRNALys3, 20 min room temperature; 6% native PAGE at 4 C. The note with it: protein: recombinant; tRNA fold, anticodon stem removed. (In EMSA bound probe runs differently from free probe, usually more slowly.)

The target of the next data set is T2, hDus2 dsRBD R361A (Homo sapiens, UniProt Q9NX74 339-451, R361A).
T2 sequence: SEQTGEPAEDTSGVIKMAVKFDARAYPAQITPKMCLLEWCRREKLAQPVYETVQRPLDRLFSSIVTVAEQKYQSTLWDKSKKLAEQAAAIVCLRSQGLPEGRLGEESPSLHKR
As to the kind of experiment: EMSA; EMSA: 50 mM Tris-HCl pH 8, 10% glycerol, 5 mM DTT, 150 mM ammonium acetate, 1 uM tRNALys3, 20 min room temperature; 6% native PAGE at 4 C. The note with it: protein: recombinant.

Data set [2] addresses T3, hDus2 dsRBD R361A-R362A (Homo sapiens, UniProt Q9NX74 339-451, R361A;R362A).
T3 sequence: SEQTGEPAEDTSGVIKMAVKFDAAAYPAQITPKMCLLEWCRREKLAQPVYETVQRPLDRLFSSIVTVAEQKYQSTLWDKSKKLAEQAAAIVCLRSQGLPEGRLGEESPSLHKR
Described as above. The note with it: protein: recombinant.

Data set [3] concerns the target T4, hDus2 dsRBD WT (Homo sapiens, UniProt Q9NX74 339-451).
T4 sequence: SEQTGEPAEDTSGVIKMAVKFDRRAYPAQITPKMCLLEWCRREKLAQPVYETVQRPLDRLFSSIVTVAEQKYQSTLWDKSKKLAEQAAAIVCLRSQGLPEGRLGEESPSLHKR
The data set can be described thus: X-ray crystallography; 20 mM MgCl2 in reservoir; EMSA: 50 mM Tris-HCl pH 8, 10% glycerol, 5 mM DTT, 150 mM ammonium acetate, 1 uM tRNALys3, 20 min room temperature; 6% native PAGE at 4 C. The note with it: protein: recombinant.

Data set [4] addresses T1, hDus2 full length. The data set can be described thus: EMSA; same affinity as for deltaACS; value only in Fig S12e; EMSA: 50 mM Tris-HCl pH 8, 10% glycerol, 5 mM DTT, 150 mM ammonium acetate, 1 uM tRNALys3, 20 min room temperature; 6% native PAGE at 4 C. The note with it: protein: recombinant; tRNA fold.
In a further data set the target is T5, hDus2 dsRBD K419A-K420A (Homo sapiens, UniProt Q9NX74 339-451, K419A;K420A).
T5 sequence: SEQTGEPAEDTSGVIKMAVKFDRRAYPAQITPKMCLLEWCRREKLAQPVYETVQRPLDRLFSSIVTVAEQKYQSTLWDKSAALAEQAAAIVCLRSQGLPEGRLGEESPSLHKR
As to the kind of experiment: EMSA; EMSA: 50 mM Tris-HCl pH 8, 10% glycerol, 5 mM DTT, 150 mM ammonium acetate, 1 uM tRNALys3, 20 min room temperature; 6% native PAGE at 4 C. The settings on record: protein: recombinant; label: 15N for tRNA-observed NMR; tRNA fold.

The target of data set [5] is T3, hDus2 dsRBD R361A-R362A. The data set is described as above. The note with it: protein: recombinant; label: 15N for tRNA-observed NMR; tRNA fold.
The next data set has as its target T6, hDus2 dsRBD K420A (Homo sapiens, UniProt Q9NX74 339-451, K420A).
T6 sequence: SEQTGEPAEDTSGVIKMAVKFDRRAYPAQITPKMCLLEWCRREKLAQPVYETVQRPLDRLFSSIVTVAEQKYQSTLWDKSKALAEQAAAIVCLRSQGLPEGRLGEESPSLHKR
The data set is described as above. The note with it: protein: recombinant; label: 15N for tRNA-observed NMR; tRNA fold.

The target in another data set is T7, hDus2 dsRBD R397A (Homo sapiens, UniProt Q9NX74 339-451, R397A).
T7 sequence: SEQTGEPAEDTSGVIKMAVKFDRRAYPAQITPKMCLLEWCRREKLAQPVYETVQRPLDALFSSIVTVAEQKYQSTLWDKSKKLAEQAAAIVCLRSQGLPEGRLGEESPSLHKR
Described as above. The note with it: protein: recombinant; label: 15N for tRNA-observed NMR; tRNA fold.

Another data set addresses T8, hDus2 dsRBD K371A (Homo sapiens, UniProt Q9NX74 339-451, K371A).
T8 sequence: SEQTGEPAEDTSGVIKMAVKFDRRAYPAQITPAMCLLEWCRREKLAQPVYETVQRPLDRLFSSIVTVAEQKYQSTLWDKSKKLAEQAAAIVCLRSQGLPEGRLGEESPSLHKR
The data set is described as above. The settings on record: protein: recombinant; label: 15N for tRNA-observed NMR; tRNA fold.

The next data set deals with T9, hDus2 dsRBD K419A (Homo sapiens, UniProt Q9NX74 339-451, K419A).
T9 sequence: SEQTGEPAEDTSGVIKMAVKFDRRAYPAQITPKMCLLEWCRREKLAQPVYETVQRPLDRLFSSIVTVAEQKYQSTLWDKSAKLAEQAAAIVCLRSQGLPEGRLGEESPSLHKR
The data set is described as above. The note with it: protein: recombinant; label: 15N for tRNA-observed NMR; tRNA fold.

The target of data set [6] is T1, hDus2 full length. As to the kind of experiment: SEC-MALLS; 1:1 protein:RNA; EMSA: 50 mM Tris-HCl pH 8, 10% glycerol, 5 mM DTT, 150 mM ammonium acetate, 1 uM tRNALys3, 20 min room temperature; 6% native PAGE at 4 C. The settings on record: protein: recombinant; label: 15N for tRNA-observed NMR; tRNA fold.
The next data set addresses T10, hDus2 dsRBD R362A (Homo sapiens, UniProt Q9NX74 339-451, R362A).
T10 sequence: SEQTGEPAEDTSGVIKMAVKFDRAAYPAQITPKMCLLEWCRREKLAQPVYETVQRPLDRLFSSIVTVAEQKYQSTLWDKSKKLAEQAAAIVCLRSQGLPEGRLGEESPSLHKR
The data set can be described thus: EMSA; no impact of mutation; EMSA: 50 mM Tris-HCl pH 8, 10% glycerol, 5 mM DTT, 150 mM ammonium acetate, 1 uM tRNALys3, 20 min room temperature; 6% native PAGE at 4 C. The settings on record: protein: recombinant; label: 15N for tRNA-observed NMR; tRNA fold.

Data set [7] deals with T4, hDus2 dsRBD WT. As to the kind of experiment: EMSA; apparent Kd shown only in histogram; EMSA: 50 mM Tris-HCl pH 8, 10% glycerol, 5 mM DTT, 150 mM ammonium acetate, 1 uM tRNALys3, 20 min room temperature; 6% native PAGE at 4 C. The settings on record: protein: recombinant; label: 15N for tRNA-observed NMR; tRNA fold.

T1 sequence (Q9NX74 whole entry): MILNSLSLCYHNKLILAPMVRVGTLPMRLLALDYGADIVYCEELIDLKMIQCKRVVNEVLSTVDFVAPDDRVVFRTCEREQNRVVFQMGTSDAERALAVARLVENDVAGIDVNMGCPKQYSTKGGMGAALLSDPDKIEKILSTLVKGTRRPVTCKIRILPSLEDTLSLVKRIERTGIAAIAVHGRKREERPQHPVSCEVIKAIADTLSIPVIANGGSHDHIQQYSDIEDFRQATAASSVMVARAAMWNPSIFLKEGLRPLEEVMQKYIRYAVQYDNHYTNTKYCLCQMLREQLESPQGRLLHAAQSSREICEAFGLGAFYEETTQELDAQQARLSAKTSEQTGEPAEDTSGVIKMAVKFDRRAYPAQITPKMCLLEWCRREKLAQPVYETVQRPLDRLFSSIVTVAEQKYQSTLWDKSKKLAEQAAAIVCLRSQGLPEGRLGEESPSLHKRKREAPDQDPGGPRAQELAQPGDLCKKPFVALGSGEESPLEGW

B1: tRNAPhe-deltaACS transcript (structured_RNA)
RNA: GCGGAUUUAGCUCAGUUGGGAGAGCGCCGAAGGGAGGUCCUGUGUUCGAUCCACAGAAUUCGCACCA
In the case of B1, the binding result with hDus2 full length [1] is “binds”.

B2: 11-nt palindromic dsRNA (dsRNA)
RNA 1: CGAACUUCGCG
RNA 2: CGAACUUCGCG
With B2, the binding signal is ~3.7 fold lower affinity than same mutant for tRNA with hDus2 dsRBD R361A and ~1 affinity relative to same mutant for tRNA (similar) with hDus2 dsRBD R361A-R362A [2]. The binding result with hDus2 dsRBD WT [3] was “binds”.

B3: tRNAPhe transcript (structured_RNA)
RNA: GCGGAUUUAGCUCAGUUGGGAGAGCGCCAGACUGAAGAUCUGGAGGUCCUGUGUUCGAUCCACAGAAUUCGCACCA
Turning to B3, the binding result with hDus2 full length [4] is “binds”.

B4: human tRNALys3 (structured_RNA)
RNA: GCCCGGAUAGCUCAGUCGGUAGAGCAUCAGACUUUUAAUCUGAGGGUCCAGGGUUCAAGUCCCUGUUCGGGCGCCA
modifications: modified in vivo in E. coli (Psi39 mentioned)
In the case of B4, the binding signal with hDus2 dsRBD K419A-K420A was ~17 fold lower affinity than WT; in the data set with hDus2 dsRBD R361A-R362A [5], ~6 fold lower affinity than WT; in the data set with hDus2 dsRBD K420A, > 4 fold lower affinity than WT; with hDus2 dsRBD R397A, ~2 fold lower affinity than WT; in the data set with hDus2 dsRBD K371A, ~8 fold lower affinity than WT; with hDus2 dsRBD K419A, > 4 fold lower affinity than WT. Further, the binding result with hDus2 full length [6], in the data set with hDus2 dsRBD R362A and with hDus2 dsRBD WT [7] was “binds” in each case.
